This is an account of results in the Human Domainome abundance scans (Beltran et al. 2025).

B1: Retinoic acid receptor beta, residues 85 to 161; numbered along this chain, P10826 (parent)
chain: YKPCFVCQDKSSGYHYGVSACEGCKGFFRRSIQKNMIYTCHRDKNCVINKVTRNRCQYCRLQKCFEVGMSKESVRND

± gives the uncertainty stated by the source.

The variants in the data set derive from B1. Description: abundance fitness (aPCA) (normalised: wild type 0, dead -1); higher = more abundant; growth selection in yeast, the domain comes from the species named. The following applies: Homo sapiens.
Turning to YKPCFVCQDKSSGYHYGVSACEGCKGFFRRCIQKNMIYTCHRDKNCVINKVTRNRCQYCRLQKCFEVGMSKESVRND [S31C], the abundance fitness was -0.12 ± 0.06.
In the case of YKPCFVCQDKSSGYHYGVSACEGCKGFFRRNIQKNMIYTCHRDKNCVINKVTRNRCQYCRLQKCFEVGMSKESVRND [S31N] it was -0.508 ± 0.29; in that of YKPCFVCQDKSSGYHYGVSACEGCKGFFRREIQKNMIYTCHRDKNCVINKVTRNRCQYCRLQKCFEVGMSKESVRND [S31E], -0.505 ± 0.086; in that of YKPCFVCQDKSSGYHYGVSACEGCKGFFRRAIQKNMIYTCHRDKNCVINKVTRNRCQYCRLQKCFEVGMSKESVRND [S31A], -0.121 ± 0.041.
In the case of YKPCFVCQDKSSGYHYGVSACEGCKGFFRRIIQKNMIYTCHRDKNCVINKVTRNRCQYCRLQKCFEVGMSKESVRND [S31I] it was -0.413 ± 0.17; in that of YKPCFVCQDKSSGYHYGVSACEGCKGFFRRVIQKNMIYTCHRDKNCVINKVTRNRCQYCRLQKCFEVGMSKESVRND [S31V], -0.341 ± 0.054; in that of YKPCFVCQDKSSGYHYGVSACEGCKGFFRRTIQKNMIYTCHRDKNCVINKVTRNRCQYCRLQKCFEVGMSKESVRND [S31T], 0.148 ± 0.056.
As for YKPCFVCQDKSSGYHYGVSACEGCKGFFRRGIQKNMIYTCHRDKNCVINKVTRNRCQYCRLQKCFEVGMSKESVRND [S31G], the figure is -0.774 ± 0.079; as for YKPCFVCQDKSSGYHYGVSACEGCKGFFRRRIQKNMIYTCHRDKNCVINKVTRNRCQYCRLQKCFEVGMSKESVRND [S31R], -0.559 ± 0.058.
As for YKPCFVCQDKSSGYHYGVSACEGCKGFFRRMIQKNMIYTCHRDKNCVINKVTRNRCQYCRLQKCFEVGMSKESVRND [S31M], the abundance fitness is -0.486 ± 0.11.
For YKPCFVCQDKSSGYHYGVSACEGCKGFFRRYIQKNMIYTCHRDKNCVINKVTRNRCQYCRLQKCFEVGMSKESVRND [S31Y], the abundance fitness was -0.51 ± 0.2.
For the variant YKPCFVCQDKSSGYHYGVSACEGCKGFFRRPIQKNMIYTCHRDKNCVINKVTRNRCQYCRLQKCFEVGMSKESVRND [S31P], the abundance fitness was -0.611 ± 0.19.
As for YKPCFVCQDKSSGYHYGVSACEGCKGFFRRWIQKNMIYTCHRDKNCVINKVTRNRCQYCRLQKCFEVGMSKESVRND [S31W], the figure is -0.09 ± 0.045; as for YKPCFVCQDKSSGYHYGVSACEGCKGFFRRLIQKNMIYTCHRDKNCVINKVTRNRCQYCRLQKCFEVGMSKESVRND [S31L], -0.6 ± 0.09; as for YKPCFVCQDKSSGYHYGVSACEGCKGFFRSSIQKNMIYTCHRDKNCVINKVTRNRCQYCRLQKCFEVGMSKESVRND [R30S], -0.644 ± 0.095.
In the case of YKPCFVCQDKSSGYHYGVSACEGCKGFFRWSIQKNMIYTCHRDKNCVINKVTRNRCQYCRLQKCFEVGMSKESVRND [R30W] it was -0.647 ± 0.11; in that of YKPCFVCQDKSSGYHYGVSACEGCKGFFRVSIQKNMIYTCHRDKNCVINKVTRNRCQYCRLQKCFEVGMSKESVRND [R30V], -1.02 ± 0.14.
As for YKPCFVCQDKSSGYHYGVSACEGCKGFFRQSIQKNMIYTCHRDKNCVINKVTRNRCQYCRLQKCFEVGMSKESVRND [R30Q], the figure is -0.311 ± 0.1; as for YKPCFVCQDKSSGYHYGVSACEGCKGFFRTSIQKNMIYTCHRDKNCVINKVTRNRCQYCRLQKCFEVGMSKESVRND [R30T], -0.707 ± 0.14; as for YKPCFVCQDKSSGYHYGVSACEGCKGFFRHSIQKNMIYTCHRDKNCVINKVTRNRCQYCRLQKCFEVGMSKESVRND [R30H], -0.172 ± 0.2.
Take YKPCFVCQDKSSGYHYGVSACEGCKGFFRLSIQKNMIYTCHRDKNCVINKVTRNRCQYCRLQKCFEVGMSKESVRND [R30L]: the abundance fitness was -1.02 ± 0.16.
In the case of YKPCFVCQDKSSGYHYGVSACEGCKGFFRKSIQKNMIYTCHRDKNCVINKVTRNRCQYCRLQKCFEVGMSKESVRND [R30K], the abundance fitness is 0.152 ± 0.052.
In the case of YKPCFVCQDKSSGYHYGVSACEGCKGFFRRSMQKNMIYTCHRDKNCVINKVTRNRCQYCRLQKCFEVGMSKESVRND [I32M] it was -0.105 ± 0.061; in that of YKPCFVCQDKSSGYHYGVSACEGCKGFFRRSAQKNMIYTCHRDKNCVINKVTRNRCQYCRLQKCFEVGMSKESVRND [I32A], -0.156 ± 0.052.
As for YKPCFVCQDKSSGYHYGVSACEGCKGFFRRSGQKNMIYTCHRDKNCVINKVTRNRCQYCRLQKCFEVGMSKESVRND [I32G], the figure is -0.521 ± 0.06; as for YKPCFVCQDKSSGYHYGVSACEGCKGFFRRSVQKNMIYTCHRDKNCVINKVTRNRCQYCRLQKCFEVGMSKESVRND [I32V], 0.055 ± 0.04; as for YKPCFVCQDKSSGYHYGVSACEGCKGFFRRSNQKNMIYTCHRDKNCVINKVTRNRCQYCRLQKCFEVGMSKESVRND [I32N], -0.059 ± 0.11.
As for YKPCFVCQDKSSGYHYGVSACEGCKGFFRRSFQKNMIYTCHRDKNCVINKVTRNRCQYCRLQKCFEVGMSKESVRND [I32F], the figure is -0.633 ± 0.22.
For the variant YKPCFVCQDKSSGYHYGVSACEGCKGFFRRSRQKNMIYTCHRDKNCVINKVTRNRCQYCRLQKCFEVGMSKESVRND [I32R], the abundance fitness was -0.648 ± 0.073.
Take YKPCFVCQDKSSGYHYGVSACEGCKGFFRRSPQKNMIYTCHRDKNCVINKVTRNRCQYCRLQKCFEVGMSKESVRND [I32P]: the abundance fitness was -1.09 ± 0.37.
Regarding YKPCFVCQDKSSGYHYGVSACEGCKGFFRRSCQKNMIYTCHRDKNCVINKVTRNRCQYCRLQKCFEVGMSKESVRND [I32C], the abundance fitness is -0.176 ± 0.075.
As for YKPCFVCQDKSSGYHYGVSACEGCKGFFRRSQQKNMIYTCHRDKNCVINKVTRNRCQYCRLQKCFEVGMSKESVRND [I32Q], the figure is -0.261 ± 0.1; as for YKPCFVCQDKSSGYHYGVSACEGCKGFFRRSSQKNMIYTCHRDKNCVINKVTRNRCQYCRLQKCFEVGMSKESVRND [I32S], -0.487 ± 0.098; as for YKPCFVCQDKSSGYHYGVSACEGCKGFFRRSDQKNMIYTCHRDKNCVINKVTRNRCQYCRLQKCFEVGMSKESVRND [I32D], -0.312 ± 0.14.
As for YKPCFVCQDKSSGYHYGVSACEGCKGFFRRSLQKNMIYTCHRDKNCVINKVTRNRCQYCRLQKCFEVGMSKESVRND [I32L], the figure is -0.08 ± 0.049.
Consider YKPCFVCQDKSSGYHYGVSACEGCKGFFRRSKQKNMIYTCHRDKNCVINKVTRNRCQYCRLQKCFEVGMSKESVRND [I32K], for which the abundance fitness was -0.45 ± 0.12.
